Laboratory results taken from publication doi:10.1101/2021.03.22.436447 (bioRxiv, 2021).

Target: T1, spectacled caiman hemoglobin beta-type chain (Caiman crocodilus (endogenous in red …, UniProt P02131 1-146))
T1 sequence (looked up): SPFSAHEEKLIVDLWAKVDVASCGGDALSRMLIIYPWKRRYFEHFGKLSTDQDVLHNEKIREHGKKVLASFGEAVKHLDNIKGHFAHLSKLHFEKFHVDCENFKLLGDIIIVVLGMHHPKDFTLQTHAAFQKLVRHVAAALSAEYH
Test: SEC

- binding result: binds
B1: spectacled caiman hemoglobin alpha-type chain (natural protein)
chain: not shown
